Experimental data from paper PMC11310380 (Cell reports, 2024).

Biological target: the molecule itself
Assay: cross-linking

B1: P9-hTTN3 (human Tentonin 3/TMEM150C with the P9 sequence at its N terminus) (natural protein, UniProt B9EJG8 1-249, looked up)
chain: MDGKKCSVWMFLPLVFTLFTSAGLWIVYFIAVEDDKILPLNSAERKPGVKHAPYISIAGDDPPASCVFSQVMNMAAFLALVVAVLRFIQLKPKVLNPWLNISGLVALCLASFGMTLLGNFQLTNDEEIHNVGTSLTFGFGTLTCWIQAALTLKVNIKNEGRRVGIPRVILSASITLCVVLYFILMAQSIHMYAARVQWGLVMCFLSYFGTFAVEFRHYRYEIVCSEYQENFLSFSESLSEASEYQTDQV
stoichiometry N: 4
